Test results as given in paper PMC8646926 (Advanced Biology, 2021).

Molecular target: the molecule itself
Test: 15N-1H HSQC NMR (line broadening and signal loss)

B1: SARS-CoV-2 Nsp9, wild type, purified recombinant (natural protein, UniProt P0DTD1 4141-4253, looked up)
chain: NNELSPVALRQMSCAAGTTQTACTDDNALAYYNTTKGGRFVLALLSDLQDLKWARFPKSDGTGTIYTELEPPCRFVTDTPKGPKVKYLYFIKGLNNLNRGMVLGSLAATVRLQ
modifications: 15N or 13C,15N isotope labelling in the NMR experiments
B1: binds.
